The results in this text go back to patent US20220372132A1 (SG MEDICAL, published 2022).

The target of assay [1] is T1, α5β1 integrin (R&D Systems, USA) (human, UniProt P08648 42-995; P05556 21-728).
T1 construct: Bought heterodimer; also called recombinant human α5β1 integrin
In words: indirect ELISA, integrin coated at 1 µg/ml, HRP anti-human Fc detection. How it is done: (§1) The affinities of the monoclonal antibody GP5 for various integrins were measured by indirect ELISA to determine the specificity of the monoclonal antibody GP5 for beta 1 integrin. Each of recombinant human αVβ1 integrin (R&D Systems, USA), αVβ3 integrin (R&D Systems, USA), αVβ5 integrin (R&D Systems, USA), αVβ6 integrin (R&D Systems, USA), αVβ8 integrin (R&D Systems, USA), α5β1 integrin (R&D Systems, USA), and α2bβ3 integrin (R&D Systems, USA) was diluted to 1 μg/ml in 50 μl of PBS, plated in a 96-well immune plate (Corning, USA), and stored at 4° C. overnight for its adsorption. After incubation with a buffer containing 3% bovine serum albumin (Millipore, USA) at 37° C. for 1 h, the wells were treated with the monoclonal antibody GP5 sequentially diluted to concentrations of 0.01, 0.03, 0.1, 0.3, 1, 3, 100, 300, and 1000 nM (50 μl/well). The well plate was incubated at 37° C. for 2 h to allow the antibody to bind to the antigen and washed 3 times with a buffer containing 0.5% Tween 20 (Amresco, USA). The wells were treated with HRP-labeled anti-human Fc IgG secondary antibody diluted 1:3000 with PBS (50 μl/well). The well plate was incubated at 37° C. for 1 h and washed 3 times with a buffer containing 0.5% Tween 20 (Amresco, USA). […] Absorbance was measured at 450 nm using a spectrophotometer (Biotek, USA).
For orientation: An ELISA detects its analyte on a solid surface through an enzyme-linked reagent.

Assay [2] deals with T2, recombinant human αVβ1 integrin (R&D Systems, USA) (human, UniProt P06756 31-992; P05556 21-728).
T2 construct: Bought heterodimer
T2 sequence (P06756 31-992 limits assumed, chain 1 of 2): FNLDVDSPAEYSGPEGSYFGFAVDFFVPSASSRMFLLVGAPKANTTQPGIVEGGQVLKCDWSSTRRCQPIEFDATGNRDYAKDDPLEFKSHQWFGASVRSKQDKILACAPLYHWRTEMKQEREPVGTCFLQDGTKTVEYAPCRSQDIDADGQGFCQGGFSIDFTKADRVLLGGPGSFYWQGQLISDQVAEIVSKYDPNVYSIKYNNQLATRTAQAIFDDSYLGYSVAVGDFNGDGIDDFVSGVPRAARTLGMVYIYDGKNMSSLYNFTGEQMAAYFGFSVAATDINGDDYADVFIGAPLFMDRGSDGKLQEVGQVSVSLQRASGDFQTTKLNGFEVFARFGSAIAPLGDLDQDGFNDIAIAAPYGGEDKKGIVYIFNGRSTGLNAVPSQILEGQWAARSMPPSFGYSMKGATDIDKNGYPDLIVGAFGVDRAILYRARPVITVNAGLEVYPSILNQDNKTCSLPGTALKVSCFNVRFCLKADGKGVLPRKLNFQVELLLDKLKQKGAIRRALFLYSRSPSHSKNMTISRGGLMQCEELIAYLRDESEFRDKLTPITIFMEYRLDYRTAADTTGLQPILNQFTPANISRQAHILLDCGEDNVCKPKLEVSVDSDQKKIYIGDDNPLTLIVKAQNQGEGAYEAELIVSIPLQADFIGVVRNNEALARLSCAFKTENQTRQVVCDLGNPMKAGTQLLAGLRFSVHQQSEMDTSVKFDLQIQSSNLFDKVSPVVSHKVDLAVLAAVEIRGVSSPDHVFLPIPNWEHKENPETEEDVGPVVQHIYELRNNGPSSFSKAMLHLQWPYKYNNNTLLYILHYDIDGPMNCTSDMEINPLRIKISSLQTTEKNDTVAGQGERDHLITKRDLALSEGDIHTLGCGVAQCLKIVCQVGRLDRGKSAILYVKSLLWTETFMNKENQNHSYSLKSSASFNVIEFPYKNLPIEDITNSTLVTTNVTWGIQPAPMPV
T2 sequence (P05556 21-728 limits assumed, chain 2 of 2): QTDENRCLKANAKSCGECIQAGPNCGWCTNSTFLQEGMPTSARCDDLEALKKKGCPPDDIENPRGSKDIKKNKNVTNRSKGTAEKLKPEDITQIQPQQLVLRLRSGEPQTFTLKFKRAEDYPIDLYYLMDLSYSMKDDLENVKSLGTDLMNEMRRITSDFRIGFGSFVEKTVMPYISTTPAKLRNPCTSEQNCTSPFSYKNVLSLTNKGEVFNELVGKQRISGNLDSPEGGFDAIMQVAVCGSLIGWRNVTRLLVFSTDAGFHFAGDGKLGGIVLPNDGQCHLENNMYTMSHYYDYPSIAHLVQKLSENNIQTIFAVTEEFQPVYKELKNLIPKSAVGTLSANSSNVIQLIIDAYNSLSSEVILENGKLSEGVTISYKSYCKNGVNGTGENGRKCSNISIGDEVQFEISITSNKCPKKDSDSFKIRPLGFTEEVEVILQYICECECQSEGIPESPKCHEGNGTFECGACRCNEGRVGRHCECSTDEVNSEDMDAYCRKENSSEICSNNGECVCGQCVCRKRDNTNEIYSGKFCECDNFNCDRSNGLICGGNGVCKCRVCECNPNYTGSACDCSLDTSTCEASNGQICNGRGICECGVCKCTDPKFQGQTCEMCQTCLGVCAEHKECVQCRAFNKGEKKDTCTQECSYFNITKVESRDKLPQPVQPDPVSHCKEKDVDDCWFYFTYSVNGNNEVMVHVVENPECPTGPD
The description is as above. The method, then: as §1

T1 sequence (P08648 42-995 limits assumed, chain 1 of 2): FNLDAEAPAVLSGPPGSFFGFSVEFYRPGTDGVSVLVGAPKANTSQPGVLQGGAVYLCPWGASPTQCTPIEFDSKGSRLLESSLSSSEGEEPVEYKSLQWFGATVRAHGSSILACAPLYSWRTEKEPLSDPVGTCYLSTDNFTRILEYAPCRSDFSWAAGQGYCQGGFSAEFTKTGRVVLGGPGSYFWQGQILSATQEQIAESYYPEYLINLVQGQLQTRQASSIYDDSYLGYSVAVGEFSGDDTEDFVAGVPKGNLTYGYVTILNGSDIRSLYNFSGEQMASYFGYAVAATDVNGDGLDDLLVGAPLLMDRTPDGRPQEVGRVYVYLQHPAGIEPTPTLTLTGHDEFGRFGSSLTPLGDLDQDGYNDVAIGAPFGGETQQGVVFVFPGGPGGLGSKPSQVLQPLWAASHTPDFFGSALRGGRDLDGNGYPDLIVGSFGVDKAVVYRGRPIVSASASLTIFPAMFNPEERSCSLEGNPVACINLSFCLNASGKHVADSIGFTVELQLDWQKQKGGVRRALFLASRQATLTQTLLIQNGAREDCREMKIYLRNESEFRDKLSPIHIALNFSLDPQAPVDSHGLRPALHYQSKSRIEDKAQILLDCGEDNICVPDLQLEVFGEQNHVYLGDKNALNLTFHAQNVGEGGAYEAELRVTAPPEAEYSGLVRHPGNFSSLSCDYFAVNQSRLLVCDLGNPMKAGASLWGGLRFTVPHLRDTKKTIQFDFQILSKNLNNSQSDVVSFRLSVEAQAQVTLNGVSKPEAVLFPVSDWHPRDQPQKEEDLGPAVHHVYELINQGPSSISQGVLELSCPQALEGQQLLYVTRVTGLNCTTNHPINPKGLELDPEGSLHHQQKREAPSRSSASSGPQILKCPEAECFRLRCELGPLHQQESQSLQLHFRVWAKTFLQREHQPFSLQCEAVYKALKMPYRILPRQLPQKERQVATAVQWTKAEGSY
T1 sequence (P05556 21-728 limits assumed, chain 2 of 2): as the sequence (P05556 21-728 limits assumed, chain 2 of 2) above

B1: monoclonal antibody GP5 (antibody, human IgG1, V domains shown)
VH: QVQLQQSGSELMKPGASVKVSCKASGYTFTNYWIEWIVQRPGHGLEWIGEILPGSVNTNYNAKFKDRATFTADTSTDTASMELSSLTSEDSAVYYCALATPYYALDSWGQGTSVTVSS
VL: DIVMTQAAPSLSVTPGESVSISCRSTESLLHSNGNTYLYWYLQKPGQSPQLLIYRMSNRASGVPDRFSGSGSGTAFTLKIRRVEAEDVGVYYCMQHLEYPFTFGAGTKLELK
notes: Full IgG made in HEK293F cells; The humanized VH is joined to a human IgG1 heavy chain constant region (CH1, CH2, CH3) and the VL to a human Ckappa; also called humanized antibody GP5; modified monoclonal antibody (GP5)
Regarding B1, the binding result in assay [1] and in assay [2] was “binds” each time.
